Laboratory results as given in paper PMC9240080.
pKd: −log10 of the molar value.

Tests used:
[1] = molecular target: SpySwitch; assay: ITC; pH 7.5
[2] = molecular target: SpySwitch; assay: ITC

SpyTag003-MBP
pKd [1]: 5.82 | stoichiometry N [2]: 1

SpyTag-MBP
pKd [1]: 5.96 | stoichiometry N [2]: 1
